Source: paper doi:10.1101/2020.04.14.041327 (bioRxiv, 2020)

Assays:
[1] = biological target: linear M1-linked tetra-ubiquitin (UniProt P0CG48); test: SPR
[2] = biological target: linear M1-linked tri-ubiquitin (UniProt P0CG48); test: SPR
[3] = biological target: linear M1-linked tetra-ubiquitin (UniProt P0CG48); test: ITC
[4] = biological target: linear M1-linked tri-ubiquitin (UniProt P0CG48); test: ITC
[5] = biological target: linear M1-linked tetra-ubiquitin (UniProt P0CG48); test: SEC-MALS
[6] = biological target: linear M1-linked tri-ubiquitin (UniProt P0CG48); test: SEC-MALS
SEC-MALS = biological target: the molecule itself; test: SEC-MALS

Sequence of linear M1-linked tri-ubiquitin (P0CG48 1-228): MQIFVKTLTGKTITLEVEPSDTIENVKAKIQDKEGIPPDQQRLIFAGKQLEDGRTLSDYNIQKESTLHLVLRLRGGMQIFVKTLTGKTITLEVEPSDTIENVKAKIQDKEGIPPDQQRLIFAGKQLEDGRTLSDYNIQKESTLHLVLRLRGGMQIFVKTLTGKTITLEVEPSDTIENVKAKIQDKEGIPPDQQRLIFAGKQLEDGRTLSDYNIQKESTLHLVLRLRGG
Sequence of linear M1-linked tetra-ubiquitin (P0CG48 1-304): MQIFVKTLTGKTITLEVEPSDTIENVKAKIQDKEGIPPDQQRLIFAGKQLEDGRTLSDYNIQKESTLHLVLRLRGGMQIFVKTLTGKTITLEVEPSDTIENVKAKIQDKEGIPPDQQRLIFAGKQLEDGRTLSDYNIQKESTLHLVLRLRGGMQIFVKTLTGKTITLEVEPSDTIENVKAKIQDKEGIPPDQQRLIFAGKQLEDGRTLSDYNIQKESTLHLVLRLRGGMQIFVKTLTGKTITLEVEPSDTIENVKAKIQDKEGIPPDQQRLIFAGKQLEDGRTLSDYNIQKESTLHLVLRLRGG

B1: Human NEMO 258-350 C347S (NEMO UBAN domain) (domain or fragment)
chain: MQLEDLKQQLQQAEEALVAKQEVIDKLKEEAEQHKIVMETVPVLKAQADIYKADFQAERQAREKLAEKKELLQEQLEQLQREYSKLKASSQES
Kd [1]: 6.4 µM
Kd [2]: 9.6 µM
Kd [3]: 4.1 µM
dH [3]: -4.49 kcal/mol
Kd [4]: 1.6 µM
dH [4]: -4.28 kcal/mol
stoichiometry N [5]: 2 NEMO monomers per poly-ubiquitin
stoichiometry N [6]: 2 NEMO monomers per poly-ubiquitin
binding result (SEC-MALS): binds
